Measurements from patent US20160251436A1 (PD 1 ACQUISITION GROUP, published 2016).
Substitutions are numbered along the chain they refer to.

T1: recombinant soluble extracellular domain (ECD) of ICOS (inducible T-cell costimulator) (R&D Systems) (UniProt Q9Y6W8 21-140, limits assumed)
T1 construct: extracellular domain
T1 sequence (looked up): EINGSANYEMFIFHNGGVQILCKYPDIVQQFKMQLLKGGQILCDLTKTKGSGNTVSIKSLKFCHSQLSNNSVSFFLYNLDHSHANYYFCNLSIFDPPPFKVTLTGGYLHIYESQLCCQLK

B1: 100244_C8VH3_100245_C8VK5 (antibody, V domains shown)
VH: EVQLQESGPELVRPGASVKMSCKASGYTFTSYWMHWVKQRPGQGLEWIGMIDPSNSETSLNQKFKDKATLNVDKSTNTAYMQLSSLTSEDSAVYYCARSRGNYAYEMDYWGQGTSVTVSS
VL: DIVITQTTAIMSASPGEKVTLTCSASSSVSSNYLYWYQQRPGSSPKLWIYSTSNLASGVPARFSGSGSGTSYSLTISSMEAEDAASYFCHQWSSYPPTFGSGTKLEIK
notes: Mouse variable regions; cloned into pFUSE-CHIg-mG1 (murine IgG1 Fc), expressed in HEK293
B2: 100388_D4VH3_100389_D4VK5 (antibody, V domains shown)
VH: EVQLQESGAELVRPGASVTLSCKASGYTFTDYEMHWVKQTPVHGLEWIGVIDPGTGGTAYNQKFKVKALLTADKSSNTAYMELRSLTSEDSAVYYCTSEKFGSNYYFDYWGQGTTLTVSS
VL: DIVITQTPLSLPVSLGDQASISCRSSQTIVHSDGNTYLEWYLQKPGQSPKLLIYKVSNRFSGVPDRFSGSGSGTDFTLKISRVEAEDLGVYYCFQGSHVPLTFGAGTKLEIK
notes: as for B1
B3: 100413_E1VH9_100414_E1VK5 (antibody, V domains shown)
VH: EVQLQESGPSLVQPSQSLSITCTVSGFSLTSYGVHWVRQSPGKGLEWLGVIWRGGNTDYNAAFMSRLSITKDNSKSQVFFKMNSLQADDTAIYYCAASMIGGYWGQGTTLTVSS
VL: B2 VL with I4L, T28S, D33N, D75N, I111L
notes: as for B1
B4: 100246_A10VH1_100247_A10VK3 (antibody, V domains shown)
VH: EVQLQESGPGLVKPSQSLSLTCTVTGYSITSDYAWNWIRQFPGNKLEWMGYITYSGSPTYNPSLKSQFSITRDTSKNQFFLQLNSLTTEDTATYYCARGLGGHYFDYWGQGTTLTVSS
VL: DIVLTQSPDTLSVTPGDRVSLSCRASQSISDYLHWYQQKSHESPRLLIKYASQSISGIPSRFSGSGSGSDFTLSINSVEPEDVGVYYCQNGHSYPYTFGGGTKLELK
notes: as for B1
B5: 100413_D2VH9_100414_D2VK6 (antibody, V domains shown)
VH: EVQLQESGPDLVKPSQSLSLTCTVTGYSITSGYSWHWIRQFPGNKLEWMGFIHYSGDTNYNPSLKSRFSITRDTSKNQFFLHLNSVTPEDTATYYCASPSRLLFDYWGHGTTLTVSS
VL: DIVMTQSPSSLTVTAGEKVTMSCKSSQSLLNSGTQKNYLTWYQQKPGQPPKLLIYWASTRESGVPDRFTGSGSGTDFTLTISSVQAEDLAVYYCQNDYSYPLTFGAGTKLEIK
notes: as for B1
B6: 100258_F6VH4_100259_F6VK1 (antibody, V domains shown)
VH: B1 VH with D52E, N55S, T76S
VL: B1 VL with I4M, I10T, S30N, R40K, L47V, I107L
notes: as for B1
B7: 100258_C1VH4_100259_C1VK1 (antibody, V domains shown)
VH: EVQLQESGAELVMPGASVKMSCKASGYTFTDYWMHWVKQRPGQGLEWIGAIDTSDSYTSYHQNFKGKATLTEDESSSTAYMQLSSLTSEDSAIYYCARRDYGGFGYWGQGTTLTVSS
VL: DIVITQSPLSLPVGLGDQASISCRSSQSLVHSNGNTYLHWYLQKPGQSPKLLIYKVSNRFSGVPDRFSGSGSGTDFTLKISRVEAEDLGVYFCSQSTHVPYTFGGGTKLEIK
notes: as for B1
B8: 244C8-1 (100244_C8_HC1 + 100245_C8_LC1) (antibody, V domains shown)
VH: QVQLVQSGAEVKKPGASVKVSCKASGYTFTSYWMHWVRQAPGQGLEWMGMIDPSNSETSLNQKFQGRVTMTVDKSTNTVYMELSSLRSEDTAVYYCARSRGNYAYEMDYWGQGTLVTVSS
VL: EIVLTQSPATLSLSPGERATLSCRASSSVSSNYLYWYQQKPGQAPRLLIYSTSNRATGIPARFSGSGSGTDYTLTISSLEPEDFAVYYCHQWSSYPPTFGQGTKLEIK
B9: 244C8-3 (100244_C8_HC2 + 100245_C8_LC1) (antibody, V domains shown)
VH: B8 VH with Q1E, M70L, T71N, V79A
VL: B8 VL
B10: 388D4-2 (100388_D4_HC3 + 100389_D4_LC3) (antibody, V domains shown)
VH: EVQLVQSGAEVKKPGASVKVSCKASGYTFTDYEMHWVRQAPGQRLEWMGVIDPGTGGTAYNQKFQGRVTITADKSASTAYMELSSLRSEDTAVYYCTSEKFGSNYYFDYWGQGTLVTVSS
VL: DIVMTQTPLSSPVTLGQPASISCRSSQTIVHSDGNTYLEWYQQRPGQPPRLLIYKVSNRFSGVPDRFSGSGAGTDFTLKISRVEAEDVGVYYCFQGSHVPLTFGQGTKLEIK
B11: 388D4-3 (100388_D4_HC1 + 100389_D4_LC3) (antibody, V domains shown)
VH: B10 VH with R44G, V50I, I70M, A76T, A79V
VL: B10 VL

The molecules below were run against T2, recombinant soluble extracellular domain (ECD) of CD28 (R&D Systems) (UniProt P10747 19-152, limits assumed) (assay: ELISA, CD28 ECD coated on the plate, OD 450 nm; anti-CD28 as positive control).
T2 construct: extracellular domain
Protocol: (§1) To assess selectivity of the anti-PD-1 antibodies, ELISA was used to generate dose response curves for binding of the anti-PD-1 antibodies to several immunomodulatory cell surface proteins. Recombinant soluble extracellular domains (ECDs) of ICOS (inducible T-cell costimulator), PD-1, CD28 or CTLA4 (R&D Systems, Minneapolis, Minn.) were coated onto ELISA assay plates. Binding of each anti-PD-1 antibody and each control antibody to each target protein was then assessed over a range of antibody concentrations (FIGS. 9A-9D).

Row | binding result | Molecule
1 | no binding (tested: about 13 nM) | B1
2 | no binding (tested: about 13 nM) | B2
3 | no binding (tested: about 13 nM) | B3
4 | no binding (tested: about 13 nM) | B4

The molecules below were run against T1, recombinant soluble extracellular … (assay: ELISA, ICOS ECD coated on the plate, OD 450 nm; anti-ICOS as positive control).
Protocol: as §1

Row | binding result | Molecule
5 | no binding (tested: about 13 nM) | B1
6 | no binding (tested: about 13 nM) | B2
7 | no binding (tested: about 13 nM) | B3
8 | no binding (tested: about 13 nM) | B4

The molecules below were run against T3, recombinant soluble extracellular domain (ECD) of CTLA4 (R&D Systems) (UniProt P16410 36-161, limits assumed) (assay: ELISA, CTLA4 ECD coated on the plate, OD 450 nm; anti-CTLA4 as positive control).
T3 construct: extracellular domain
T3 sequence (P16410 36-161 limits assumed): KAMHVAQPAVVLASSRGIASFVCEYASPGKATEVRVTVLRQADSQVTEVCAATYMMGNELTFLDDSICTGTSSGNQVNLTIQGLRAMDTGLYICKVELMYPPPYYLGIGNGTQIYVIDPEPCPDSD
Protocol: as §1

Row | binding result | Molecule
9 | no binding (tested: about 13 nM) | B1
10 | no binding (tested: about 13 nM) | B2
11 | no binding (tested: about 13 nM) | B3
12 | no binding (tested: about 13 nM) | B4

These molecules were tested against T4, recombinant soluble extracellular domain (ECD) of PD-1 (R&D Systems) (UniProt Q15116 25-170) (assay: ELISA, PD-1 ECD coated on the plate, antibody titrated from about 0.003 to about 13 nM, OD 450 nm).
T4 construct: extracellular domain; also called PD-1 ECD
T4 sequence (Q15116 25-170): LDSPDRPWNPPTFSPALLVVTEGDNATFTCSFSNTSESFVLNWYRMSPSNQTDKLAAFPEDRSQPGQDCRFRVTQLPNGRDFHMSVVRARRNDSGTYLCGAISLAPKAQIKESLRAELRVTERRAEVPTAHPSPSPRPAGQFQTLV
Protocol: as §1

Row | EC50 (read off the curve) | Molecule
13 | ~0.03 nM | B1
14 | ~0.05 nM | B2
15 | ~0.06 nM | B3
16 | ~0.04 nM | B4

What follows are molecules tested against T5, soluble extracellular domain of human PD-1 (human, UniProt Q15116 25-170) (assay: BLI (ForteBio Octet Red), antibody on the biosensor, soluble PD-1 ECD as analyte).
T5 construct: extracellular domain
T5 sequence (Q15116 25-170): as above
Protocol: Biophysical characteristics of certain anti-PD-1 antibodies were analyzed by biolayer interferometry (BLI), using the ForteBio Octet Red system (Pall Corporation, Menlo Park, Calif.). The antibodies were immobilized on BLI biosensors and then incubated with the soluble extracellular domain of human PD-1. Using standard biophysics methods, apparent on-rates and off-rates were then inferred for PD-1 with anti-PD-1 antibodies.

Row | Kd | koff | kon | Molecule
17 | 15.1 nM | 0.00322 s⁻¹ | 213000 M⁻¹ s⁻¹ | B1
18 | 2.69 nM | 0.000999 s⁻¹ | 371000 M⁻¹ s⁻¹ | B2
19 | 58.9 nM | 0.0299 s⁻¹ | 507000 M⁻¹ s⁻¹ | B3
20 | 76.4 nM | 0.0123 s⁻¹ | 161000 M⁻¹ s⁻¹ | B4
21 | 8.2 nM | 0.00226 s⁻¹ | 275000 M⁻¹ s⁻¹ | B5

The molecules below were run against T6, human Programmed Death-1 (PD-1) expressed on the cell surface (human, UniProt Q15116 25-288) (assay: cell binding, HEK293 cells expressing human PD-1, fluorescent anti-mouse secondary).
T6 construct: whole, on cells; also called CD279; Human PD-1 Expressed on HEK293 Surface
T6 sequence (Q15116 25-288): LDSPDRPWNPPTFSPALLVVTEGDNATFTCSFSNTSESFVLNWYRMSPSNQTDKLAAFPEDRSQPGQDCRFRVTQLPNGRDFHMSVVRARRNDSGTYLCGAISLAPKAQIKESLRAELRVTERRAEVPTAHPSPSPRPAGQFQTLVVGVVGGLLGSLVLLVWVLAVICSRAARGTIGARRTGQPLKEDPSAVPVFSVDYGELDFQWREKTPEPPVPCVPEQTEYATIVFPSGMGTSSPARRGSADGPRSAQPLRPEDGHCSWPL
Protocol: Recombinant antibodies from cultured supernatants were also used in cell-based binding studies. HEK293 cells were transfected (Qiagen, SuperFect) with expression plasmids encoding the Ig heavy and light chains of anti-PD-1 antibodies. After 3-5 days, recombinant antibodies in the supernatants of transfected cells were harvested. Stable HEK293 cells expressing human PD-1 or primary cells were used for the cell-based binding confirmation studies. Antibodies from cultured supernatants were assessed for binding to cell surface PD-1 using fluorescently labeled anti-mouse IgG (polyclonal) antibody (Jackson Immunoresearch).
In both studies, commercially available mouse anti-PD-1 antibody and isotype control mouse IgG1 […] were used as controls. […] Strong binding is denoted as “+++”, medium binding is denoted as “++”, and weak binding is denoted as “+”.

Row | Molecule | binding result
22 | B6 | binds
23 | B7 | binds

What follows are molecules tested against T6, human Programmed Death-1 (PD-1) … (assay: cell-based or functional assay).

Row | Molecule | CD4 IFNγ % positive | CD8 IFNγ % positive | CD8 TNFα % positive
24 | B1 | 9.64 % positive | 19.9 % positive | 14.5 % positive
25 | B2 | 21.2 % positive | 31.2 % positive | 8.56 % positive
26 | B3 | 20.2 % positive | 27 % positive | 11.1 % positive
27 | B4 | 20.3 % positive | 26.2 % positive | 14.9 % positive

Molecular target: T6, human Programmed Death-1 (PD-1) …
Test: cell-based or functional assay
Remark: another data set of the same source

Row | Molecule | Fold Induction IFN-γ (relative to isotype control; NSCLC biopsy cells, 20 µg/mL)
28 | B8 | 8.04 fold
29 | B9 | 7.79 fold
30 | B10 | 7.58 fold
31 | B11 | 7.2 fold

Molecular target: T6, human Programmed Death-1 (PD-1) …
Test: cell-based or functional assay
Remark: another data set of the same source

Row | Molecule | Fold Induction IFN-γ (relative to anti-CD3 + anti-CD28 only; antibody at 5 ug/mL) | Fold Induction IFN-γ (relative to anti-CD3 + anti-CD28 only; antibody at 10 ug/mL)
32 | B10 | 2.06 fold | 1.82 fold

The molecules below were run against T7, PD-1-HIS (human, UniProt Q15116) (assay: ELISA, supernatant of transfected HEK293 cells on PD-1-HIS(tag), OD 450 nm, average of two experiments).
T7 construct: soluble extracellular domain; May be the same protein as m2; also called PD-1-HIS(tag); PD-1-His Tag (Sino Biological #10377-H08H-50)
T7 sequence (Q15116 25-167 limits assumed): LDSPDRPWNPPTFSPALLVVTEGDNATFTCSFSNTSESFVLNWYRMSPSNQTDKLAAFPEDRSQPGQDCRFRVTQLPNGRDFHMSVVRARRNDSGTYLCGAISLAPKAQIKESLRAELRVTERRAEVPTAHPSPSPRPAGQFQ

Row | binding result | Molecule
33 | binds | B6
34 | binds | B7

Each molecule was assayed against human Programmed Death-1 (PD-1) expressed on the cell surface (human) (UniProt Q15116) (assay: flow cytometry blocking assay: HEK293 cells expressing PD-1 incubated with 10 µg/ml isotype control, washed, stained with PD-L1-Ig Alexa-488; negative control of blocking).
Sequence of human Programmed Death-1 (PD-1) expressed on the cell surface (human) (Q15116 25-288): as the sequence (Q15116 25-288) above

Row | Molecule | percent of cells in gate Alexa Fluor 488-A+ (PD-L1-Ig staining after the antibody) | percent of cells in gate Alexa Fluor 488-A- (PD-L1-Ig staining after the antibody)
35 | isotype control mouse IgG1 (antibody) | 37.6% | 62.4%
